# B1: Histone-lysine N-methyltransferase SETD7 (Homo sapiens), Q8WTS6 (parent)
# chain: MDSDDEMVEEAVEGHLDDDGLPHGFCTVTYSSTDRFEGNFVHGEKNGRGKFFFFDGSTLEGYYVDDALQGQGVYTYEDGGVLQGTYVDGELNGPAQEYDTDGRLIFKGQYKDNIRHGVCWIYYPDGGSLVGEVNEDGEMTGEKIAYVYPDERTALYGKFIDGEMIEGKLATLMSTEEGRPHFELMPGNSVYHFDKSTSSCISTNALLPDPYESERVYVAESLISSAGEGLFSKVAVGPNTVMSFYNGVRITHQEVDSRDWALNGNTLSLDEETVIDVPEPYNHVSKYCASLGHKANHSFTPNCIYDMFVHPRFGPIKCIRTLRAVEADEELTVAYGYDHSPPGKSGPEAPEWYQVELKAFQATQQK
# B2: Forkhead box protein O3 (Mus musculus), Q9WVH4 (parent)
# chain: MAEAPASPVPLSPLEVELDPEFEPQSRPRSCTWPLQRPELQASPAKPSGETAADSMIPEEDDDEDDEDGGGRASSAMVIGGGVSSTLGSGLLLEDSAMLLAPGGQDLGSGPASAAGALSGGTPTQLQPQQPLPQPQPGAAGGSGQPRKCSSRRNAWGNLSYADLITRAIESSPDKRLTLSQIYEWMVRCVPYFKDKGDSNSSAGWKNSIRHNLSLHSRFMRVQNEGTGKSSWWIINPDGGKSGKAPRRRAVSMDNSNKYTKSRGRAAKKKAALQAAPESADDSPSQLSKWPGSPTSRSSDELDAWTDFRSRTNSNASTVSGRLSPILASTELDDVQDDDGPLSPMLYSSSASLSPSVSKPCTVELPRLTDMAGTMNLNDGLAENLMDDLLDNIALPPSQPSPPGGLMQRGSSFPYTAKSSGLGSPTGSFNSTVFGPSSLNSLRQSPMQTIQENRPATFSSVSHYGNQTLQDLLASDSLSHSDVMMTQSDPLMSQASTAVSAQNARRNVMLRNDPMMSFAAQPTQGSLVNQNLLHHQHQTQGALGGSRALSNSVSNMGLSDSSSLGSAKHQQQSPASQSMQTLSDSLSGSSLYSASANLPVMGHDKFPSDLDLDMFNGSLECDMESIIRSELMDADGLDFNFDSLISTQNVVGLNVGNFTGAKQASSQSWVPG
# partner: B1 chain
# Variants of: B1
# Settings: with foxo3_mouse Foxo3, Q9WVH4
row,effect of a mutation on the interaction,Variant
1,disrupting interaction,MDSDDEMVEEAVEGHLDDDGLPHGFCTVTYSSTDRFEGNFVHGEKNGRGKFFFFDGSTLEGYYVDDALQGQGVYTYEDGGVLQGTYVDGELNGPAQEYDTDGRLIFKGQYKDNIRHGVCWIYYPDGGSLVGEVNEDGEMTGEKIAYVYPDERTALYGKFIDGEMIEGKLATLMSTEEGRPHFELMPGNSVYHFDKSTSSCISTNALLPDPYESERVYVAESLISSAGEGLFSKVAVGPNTVMSFYNGVRITHQEVDSRDWALNGNTLSLDEETVIDVPEPYNHVSKYCASLGHKANASFTPNCIYDMFVHPRFGPIKCIRTLRAVEADEELTVAYGYDHSPPGKSGPEAPEWYQVELKAFQATQQK [H297A]

# Variants of: B2
# Settings: with setd7_human SETD7, Q8WTS6
row,effect of a mutation on the interaction,Variant
1,disrupting interaction,K270R

# From IntAct's records for PubMed 22402663
